Measurements published in US20070243571A1, “Method for Measurement of Activity of Homocysteinethiolactone Hydrolyzing Enzyme” (priority 2004, published 2007).
Where two headings read alike, the source gives them in different places.

B1: Cholinesterase: Human butyrylcholinesterase (348643, Boehringer) dissolved in purified water, 2.0 U/ml solution (protein, UniProt P06276 29-602, looked up)
Cholinesterase: EDDIIIATKNGKVRGMNLTVFGGTVTAFLGIPYAQPPLGRLRFKKPQSLTKWSDIWNATKYANSCCQNIDQSFPGFHGSEMWNPNTDLSEDCLYLNVWIPAPKPKNATVLIWIYGGGFQTGTSSLHVYDGKFLARVERVIVVSMNYRVGALGFLALPGNPEAPGNMGLFDQQLALQWVQKNIAAFGGNPKSVTLFGESAGAASVSLHLLSPGSHSLFTRAILQSGSFNAPWAVTSLYEARNRTLNLAKLTGCSRENETEIIKCLRNKDPQEILLNEAFVVPYGTPLSVNFGPTVDGDFLTDMPDILLELGQFKKTQILVGVNKDEGTAFLVYGAPGFSKDNNSIITRKEFQEGLKIFFPGVSEFGKESILFHYTDWVDDQRPENYREALGDVVGDYNFICPALEFTKKFSEWGNNAFFYYFEHRSSKLPWPEWMGVMHGYEIEFVFGLPLERRDNYTKAEEILSRSIVKRWANFAKYGNPNETQNNSTSWPVFKSTEQKYLTLNTESTRIMTKLRAQQCRFWTSFFPKVLEMTGNIDEAEWEWKAGFHRWNNYMMDWKNQFNDYTSKKESCVGL

Legend:
[1] = Autolysis of the substrate in reagent-blank (purified water as sample); type: physicochemical; conditions: HTL, MOPS buffer pH 7.8, purified water as sample
Protocol: (§1) Following the above parameters, purified water, 15 μl of a sample and 200 μl of reagent 1(A) or 1(B) or 1(C) or 1(D) was dispensed and mixed, and, after a certain length of time at a constant temperature (37° C., 5 min), 50 μl of reagent 2 was added and mixed to allow reaction to start. When reagent 2 was added to the mixture of the fraction containing serum, plasma, albumin or HDL and reagent 1(A), 1(C) or 1(D), increase in absorbance was detected which was due to the reaction of the SH-group detection reagent with DL-homocysteine, which has a free SH group, formed by hydrolysis of HTL.
As evident from FIG. 2, increase in absorbance is suppressed when calcium ion is blocked by EDTA.
(§2) Following the above parameters, 15 μl of a sample and 200 μl of reagent 1(A) or 1(B) or 1(C) or 1(D) was dispensed and mixed, and, after a certain length of time at a constant temperature (37° C., 5 min), 50 μl of reagent 2 was added and mixed to allow reaction to start. When reagent 2 was added to the mixture of the fraction containing serum, plasma, cholinesterase or HDL and reagent 1(A), increase in absorbance was detected which was due to the reaction of the SH-group detection reagent with 4-mercaptobutyric acid, which has a free SH group, formed by of HTL hydrolyzing enzyme.
As evident from FIG. 4, increase in absorbance is suppressed when calcium ion is not present. […]

[2] = target: T1, Human butyrylcholinesterase (Homo sapiens, UniProt P06276); experiment: Hydrolysis of substrate by purified human cholinesterase; type: biochemical; conditions: 2.0 U/ml human butyrylcholinesterase solution as sample
T1 construct: purchased Boehringer 348643
Protocol: Human butyrylcholinesterase (348643, Boehringer) was dissolved in purified water to prepare a 2.0 U/ml solution.
as §1, §2

HTL hydrolyzing enzyme [3] = experiment: Measurement of hydrolyzing enzyme activity for HTL (DTNB rate assay, H-7170 analyzer); type: biochemical, human; conditions: substrate DL-HTL
Protocol: Hydrolyzing enzyme activity for HTL was measured with purified water and above-mentioned samples.
Reagent 1(A): SH-group detection solution; 0.2 M MOPS buffer containing 0.5 mM CaCl2 and 1.0 mM DTNB (pH 7.8).
Reagent 1(B): SH-group detection solution; 0.2 M MOPS buffer containing 2 mM EDTA and 1.0 mM DTNB (pH 7.8).
Reagent 1(C): SH-group detection solution; 0.2 M MOPS buffer containing 0.5 mM CaCl2, 0.1 mM physostigmine sulfate and 1.0 mM DTNB (pH 7.8).
Reagent 1(D): SH-group detection solution; 0.2 M MOPS buffer containing 0.5 mM CaCl2, 0.1 mM neostigmine bromide and 1.0 mM DTNB (pH 7.8).
Reagent 2: substrate solution; aqueous solution containing 125 mM DL-HTL (Tokyo Chemical Industry Co., Ltd).
For measurement of HTL hydrolyzing enzyme activity, H-7170 automatic analyzer (Hitachi, Ltd.) was used. Parameters for measurement were as follows.
Following the above parameters, purified water, 15 μl of a sample and 200 μl of reagent 1(A) or 1(B) or 1(C) or 1(D) was dispensed and mixed, and, after a certain length of time at a constant temperature (37° C., 5 min), 50 μl of reagent 2 was added and mixed to allow reaction to start.
The activity value of HTL hydrolyzing enzyme in each sample was calculated based on: the change in absorbance per unit of time (1 min) (ΔE) from 2-minute up to 4-minute time points after the addition of the substrate (reagent 2), the molecular extinction coefficient of 5-thio-2-nitrobenzoic acid at the wavelength of 480 nm, ε=2509, and the molecular extinction coefficient of the compound at the wavelength of 546 nm, ε=78.

cholinesterase = cholinesterase (Homo sapiens, UniProt P06276); conditions: Nescoat ChE V-2 according to the package insert
Protocol: Cholinesterase activity was measured with the above-mentioned samples and unprepared serum. Measurement of cholinesterase activity was carried out using Nescoat ChE V-2 (Alfresa Pharma Coporation) according to the package insert.

HTL hydrolyzing enzyme [4] = experiment: Measurement of hydrolyzing enzyme activity for TBL (DTNB rate assay, H-7170 analyzer); type: biochemical, human; conditions: substrate TBL
Protocol: Hydrolyzing enzyme activity for TBL was measured with above-mentioned samples and unprepared serum.
Reagent 1(A): SH-group detection solution; 0.2 M MOPS buffer containing 0.5 mM CaCl2 and 1.0 mM DTNB (pH 7.2).
Reagent 1(B): SH-group detection solution; 0.2 M MOPS buffer containing 2 mM EDTA and 1.0 mM DTNB (pH 7.2).
Reagent 1(C): SH-group detection solution; 0.2 M MOPS buffer containing 0.5 mM CaCl2, 0.1 mM physostigmine sulfate and 1.0 mM DTNB (pH 7.2).
Reagent 1(D): SH-group detection solution; 0.2 M MOPS buffer containing 0.5 mM CaCl2, 0.1 mM neostigmine bromide and 1.0 mM DTNB (pH 7.2).
Reagent 2: substrate solution; aqueous solution containing 125 mM TBL (Aldrich).
For measurement of hydrolyzing enzyme activity TBL, H-7170 automatic analyzer (Hitachi, Ltd.) was used. Parameters for measurement were as follows.
Following the above parameters, 15 μl of a sample and 200 μl of reagent 1(A) or 1(B) or 1(C) or 1(D) was dispensed and mixed, and, after a certain length of time at a constant temperature (37° C., 5 min), 50 μl of reagent 2 was added and mixed to allow reaction to start.
The activity value of HTL hydrolyzing enzyme for TBL in each sample was calculated based on: the change in absorbance per unit of time (1 min) (ΔE) from 2-minute up to 4-minute time points after the addition of the substrate (reagent 2), the molecular extinction coefficient of 5-thio-2-nitrobenzoic acid at the wavelength of 480 nm, ε=2509, and the molecular extinction coefficient of the compound at the wavelength of 546 nm, ε=78.

| Molecule | stability of substrate in the reaction solution (autolysis, increase in absorbance of reagent-blank) [1] | hydrolysis by purified human cholinesterase [2] | activity value of HTL hydrolyzing enzyme, No addition (HTL hydrolyzing enzyme [3]; Reagent 1(A): 0.5 mM CaCl2, pH 7.8, 37° C., no inhibitor) | activity value of HTL hydrolyzing enzyme, EDTA.2Na (HTL hydrolyzing enzyme [3]; Reagent 1(B): 2 mM EDTA, pH 7.8, 37° C.) | activity value of HTL hydrolyzing enzyme, Physostigmine sulfate (HTL hydrolyzing enzyme [3]; Reagent 1(C): 0.5 mM CaCl2, 0.1 mM physostigmine sulfate, pH 7.8, 37° C.) | activity value of HTL hydrolyzing enzyme, Neostigmine bromide (HTL hydrolyzing enzyme [3]; Reagent 1(D): 0.5 mM CaCl2, 0.1 mM neostigmine bromide, pH 7.8, 37° C.) | Cholinesterase activity (cholinesterase) | Cholinesterase activity (cholinesterase; listed as human cholinesterase) | activity value of HTL hydrolyzing enzyme for TBL, No addition (HTL hydrolyzing enzyme [4]; Reagent 1(A): 0.5 mM CaCl2, pH 7.2, 37° C., no inhibitor) | activity value of HTL hydrolyzing enzyme for TBL, EDTA.2Na (HTL hydrolyzing enzyme [4]; Reagent 1(B): 2 mM EDTA, pH 7.2, 37° C.) | activity value of HTL hydrolyzing enzyme for TBL, Physostigmine sulfate (HTL hydrolyzing enzyme [4]; Reagent 1(C): 0.5 mM CaCl2, 0.1 mM physostigmine sulfate, pH 7.2, 37° C.) | activity value of HTL hydrolyzing enzyme for TBL, Neostigmine bromide (HTL hydrolyzing enzyme [4]; Reagent 1(D): 0.5 mM CaCl2, 0.1 mM neostigmine bromide, pH 7.2, 37° C.) |
| --- | --- | --- | --- | --- | --- | --- | --- | --- | --- | --- | --- | --- |
| NC1CCSC1=O (stereo not drawn) [HTL, homocysteinethiolactone] | unstable in the reaction solution | not hydrolyzed | – | – | – | – | – | – | – | – | – | – |
| B1 | – | – | 8 | 6 | −1 | −2 | 15392 | observed | 403 | 399 | 1 | 2 |
